Data: the DeepSol protein solubility set

test: soluble on expression in E. coli; label from the status in PepcDB or PDB records

Sequence | soluble on expression in E. coli
MGSDKIHHHHHHMKWNWQQPDWPDFRWNSEALAVHEARFLQQSGIMIGVVKHLGDEDRTSVVLDVMTDEAMKTSQIEGELLNRDSVQSSLRREFGLETEARRIPPAERGIAEMMMALFRDFAAPLTEEVLGDWHRLVLSGRSDIDVVGRYREHEDAMQVVSGALHKPTVHFEAPPSREMAAEMARFLEWFAATGPGGATPLPGLTRSGLAHLYFVTIHPFEDGNGRIGRAIAEKALSQAIGQPSLIALSQTIQRRRSAYYDALEAANKSNEISDWLAYWAETVLDAQTHSLALIDFLLEKTRFHDRYRGKLNPRQEKVIARMFREGLDGFKGGLSAANYITIADTSRATATRDLQELVALGAMGQTGTLKATRYHLILDAVAGTNPPVNQA | not soluble
MGSDKIHHHHHHMKYTFNEEKAFDIVAIGRACIDLNAVEYNRPMEETMTFSKYVGGSPANIAIGSAKLGLKAGFIGKIPDDQHGRFIESYMRKTGVDTTQMIVDQDGHKAGLAFTEILSPEECSILMYRDDVADLYLEPSEVSEDYIANAKMLLVSGTALAKSPSREAVLKAVQYAKKHQVKVVFELDYRPYTWQSSDETAVYYSLVAEQSDIVIGTRDEFDVMENRTGGSNEESVNHLFGHSADLVVIKHGVEGSYAYSKSGEVFRAQAYKTKVLKTFGAGDSYASAFIYGLVSGKDIETALKYGSASASIVVSKHSSSEAMPTAEEIEQLIEAQS | not soluble
MGSDKIHHHHHHMLCQFSFKNFKSYKETTTFDFQATSIPEFSESLLKSEKADALLPVGVIYGPNGGGKTNLLLALSCLISTVVKPIYELEKAREKIIIQQKISAAPFYFNEISRKMPTEFEVYFRQGKNEYRYNLSICGDDIVEESLYWKAIGGKRTGMVFDREGAEITLGASINKASINRSVNPKMPYLSFLAINYDIPVIVEVQKWFESCIVKNYANPIADRQIMFSDDESYRKRIVRALNDVDIDVSGYRYDEENHELYTQRMIEGKIYELSFNDESDGTKKMIAALPVILLALQEGRLVIIDELDAKLHPKLLRYVISLFKNKNVNKKGAQLLFTSHDMTTMKNTVFRRDEIWFAAENERHESEIYSLYEIRRENNERVNSTAAYDKQYLEGRYGADPYLTNMLAGGEWL | not soluble
MGSDKIHHHHHHMLDKKTNIATDDPKAWLAQHGINEVECLVPDMNGVLRGKALPTAKFLKALEDRALYLPSSAFLVSIDGRYSGSIDEGFAYSDPDMRMVPDVSTLCLAPGAGAGKAYVFADAFHMDGRPWMASPRHVLRAVLDLYRQRGWRAVVAPEVEFYLTAPNPDPDRPLTAPVGANGRAEGVQHPYDMVALEEFEPVIRRVYDYAAAAGLPLDTLIHESGTAQLEINLLHGDALPLADQVLLFKRLTRQAAQQCGMHATFMAKPIAAQAGSSMHLHMSVVDEAGNALFASDDDADTEMFGHFIGGLQTYVPEIMPLFAPNVNSFRRIRPNHSAPANIEWSHDNRSCGLRVPAGGRSARRVENRLPGADSNPYLAIAGSLLAGYLGVQQKLARSAEASGNAYKIKSTLPKTMEEALDRFTACEPVRKLLGEDFSQTYLRVKSVELDLFQSVVTSWERDHLLLKV | not soluble
MGSDKIHHHHHHMLEIGFCTLEDQCPYLKDKRSRIEYKYIENCPKEINNELIKRGWRRFGRYFSRPICKDCDECLSLRILVNEYNFSRSERRVVNKNINTKVILRTPNLSNEHLFLYDKYHRFMEEKKNWKRYDLSFKQYYNLYVDGFMNFGYELAFYIEDKLVCVDLIDILEDGISSIYCFYDPDFSYFSLGKFSLLNEIQIAKKMNLDYIYLGYFVKKCQSLSYKADYTPNEILKGTKELFENEVLWEK | not soluble
MGSDKIHHHHHHMLELKHNFIFEDQPVAWGCMGQGPALVLIHGTPFSSQVWRRIAPLLSSHWTVYYYDMVGYGQSHKSAGQQVSLGGQDRLLAALLKEWKLTRPDILCHDFGGATALRGYFLQGLRYASLTLFDAVAISPWGSPFVAHVRKHQDAFTGLPKYAHDALLSAYLQGAAYQPLSEEALNIYMSPWQGEVGQAAFYRQIAQMDQCYTDDIEPLLTELDCPVNMLWGEQDEWIPLEVGKRLAHRLGDAPLQIVKNAGHLVQEDAPEAIVQSMYSLLLKRAGTSSSR | not soluble
MGSDKIHHHHHHMLETYALKNGAVFISDAHFLPKSPHLIHTLKELLSAKPPQVFFMGDIFHVLVGYLPLDKEQQKIIDLIHALSEISQVFYFEGNHDFSMRFVFNSKVMVFERQNQPVLFQYDNKRFLLAHGDLFITKAYEFYITQLTSTWARFFLTFLNLLSFKTLYPLFKKLIYQKPVRLWELEPKELQSFIEKRLKAYQNYIKDLNIGSIDGIIEGHFHLKSGAKIPLNTPIYCPLPSFYYEQSLFKVSSSVLEPSQNKDA | not soluble
MGSDKIHHHHHHMLIQIADLFTPAEAAQIRARLEAADWVDGKVTAGYQSAQVKHNRQLSEQHPLAQELGGLILQRLAANNLFMSAALPRKIFPPLFNRYEGGEAFGYHVDNALRPVPGTAERVRTDLSATLFFSEPDSYDGGELVVDDTYGPRTVKLPAGHMVLYPGTSLHKVTPVTRGARISAFFWLQSLVREDSQRSLLLEMDVAIQRLNQDTPGHASIVQLTGVYHNLLRRWTDV | not soluble
MGSDKIHHHHHHMLISVVLPAYNVQDTIGESIDSILSQTFTDFELIIINDGSQDNTEEVIHAYSDKRIRYYRNEKNEGLIYTLNRGLDLAQGKYIARMDADDVSLPTRFEKQVKVMEESPNIVVCGTQIILFGVDTAKRFTLFLPEESEDLKNLLFIQTCFAHPTVMVRRQVLIDNEVRYDADYPHAEDYKMWIDLSLLGEFYNIQEPLLRYRLSDGQVSHKFSDVQKRTASACRRFLISARFKDEKLDRQIENSIDISTICYIKKKEYPRELLEVLYSSLRKYNFKCLCYLFVSGDIFRFEIVVALALLKRFIIKKDRLL | not soluble
MGSDKIHHHHHHMLKLLKPKHRSILGIDISSSAVKILEISGSGEDICVEGYGREEIPASALEGNIIKDVDVVANCIKKLVERLKFTSKNVALAVPDSAVISKVVQINEGLTDLEMEELVVIEADKYIPYPIDEINLDFEVLGHSAKSSSLLDVLIVASRAENVNTRVEAAHRAGLEPKVVDVESYAVERSVQQIAQELPASGQDKIVAIVDIGANYTHLFVLHGMRLIFSREEKFGGMQLVEAIAEHYHMNLEQAIALKNQGKLPEDYESAVLEPFKDMILLQIKRTLQFFYSTSQHGFVDHILLAGGMARQSGLAALIQEQLGVTTTVANPLSHMSFGKKVNLDVINSDAPTLMVACGLALRHVE | not soluble
MGSDKIHHHHHHMLKVRHLEIFRAVVKAGSVSAAARLLYVSQPAVTKTLRMLEEEIGLTLFLRVKGRLVCTPEAESILPEIERLFGSVQSIAETAREIRQGQRGSIRVSTVSMLATTIVARAVGEFRKTHPYVEFDVRALPTRHVVEYVNNNQADFGILDVAAPSGTLEVEEFCSADLRCVMRAAHPLASRKTITPRLLDNEALATFGEDTLTGWRLREAFRAQGRPFTSVFVSNSTPVLCALVREADAVALVDPFALMSRSFPDLVSRRFSPSVPVQPRFLFAPGRPRSVIVDQFVSQLRKTAGEMAMG | not soluble
MGSDKIHHHHHHMLKVSDLRLKYPNGQRKIFDHLNITIQDKEKVLLLGPSGCGKSTLLNVLSGIVPNLIELPMKYDELIVDPLSGVIFQDPDSQFCMPKVYEELAFVLENRQVPREDMDALIINALNMVNLNVTPETYIKDLSGGMKQKLAIVETILQQSKTLFLDEPTAMLDVQATEDLWTKLIELWEDQTVVIVEHKVKHIWNHVDRVILMDYNGNIIADECPEIILQKYVHLLSEYGVWHPRAWEFAPSRVDFPTTNSHLLQFKNGRIIRGKSTLLSFSDLEIGLGEWITITGANGSGKTTLLESIMQLIKYQGDVYFENQRLTKIKHAAKHMYLVYQNPELQFITNSVYDEINIHFNHLSKDQSDDETIQLLKLLDLQNVKDQHPYELSIGQKRRLSVATALSSKADIIFLDEPTFGLDSHNTFQLIKLFQKRINLGQSIVMVTHDDEIIERYPSRRLKISDGALLDCDGDTNV | not soluble
MGSDKIHHHHHHMLLQTKSNEMLLEKVMDEFSAATSLASVVVDIHGTEVSRLCNFTPFCQLIRSNPKYRSLCQKCDMFGGLEASKTGKPLIYRCHAGLTDFSVPIVVENQLSGFLLSGQVICEENSEVGNIQTEETDWKNDKDLISAFRSVPVFSSKKINSSAEMLTIISQYYLKSEMEKSREEQKQKIVFHHNKPTHHEDNKEIRKALKYIEKNLNRPITLDEVASHVYLSSYYFSKLFKKEMNVNFINYVNQKKMSLAKDMLKNPRWSIDNVARNLGFTQTSYFCKVFRKEFDVTPKGYRETLK | not soluble
